{
  "source": "patent US20260217779",
  "key": {"[1]": {"target": "T1, hCXCL11.0023-G1T4k.one//VHn-G1T4h.one.H435R", "T1 chain 1": "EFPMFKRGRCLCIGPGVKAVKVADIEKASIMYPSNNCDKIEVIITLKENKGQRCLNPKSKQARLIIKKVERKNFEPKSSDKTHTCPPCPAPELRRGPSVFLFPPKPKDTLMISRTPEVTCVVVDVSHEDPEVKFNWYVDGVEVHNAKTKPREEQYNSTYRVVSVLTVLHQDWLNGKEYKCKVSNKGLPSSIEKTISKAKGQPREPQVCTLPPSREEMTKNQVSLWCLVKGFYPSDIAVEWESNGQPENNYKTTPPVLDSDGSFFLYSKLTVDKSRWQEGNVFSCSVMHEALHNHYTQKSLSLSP", "T1 chain 2": "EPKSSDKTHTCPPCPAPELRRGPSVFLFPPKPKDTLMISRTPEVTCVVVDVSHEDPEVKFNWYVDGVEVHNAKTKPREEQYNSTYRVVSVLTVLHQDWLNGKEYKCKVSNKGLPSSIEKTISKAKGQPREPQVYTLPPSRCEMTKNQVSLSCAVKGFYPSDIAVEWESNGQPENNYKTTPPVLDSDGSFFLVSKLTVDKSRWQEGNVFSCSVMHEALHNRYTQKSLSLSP"}, "[2]": {"target": "T2, hCXCL11.0039-G1T4k.one//VHn-G1T4h.one.H435R", "T2 chain 1": "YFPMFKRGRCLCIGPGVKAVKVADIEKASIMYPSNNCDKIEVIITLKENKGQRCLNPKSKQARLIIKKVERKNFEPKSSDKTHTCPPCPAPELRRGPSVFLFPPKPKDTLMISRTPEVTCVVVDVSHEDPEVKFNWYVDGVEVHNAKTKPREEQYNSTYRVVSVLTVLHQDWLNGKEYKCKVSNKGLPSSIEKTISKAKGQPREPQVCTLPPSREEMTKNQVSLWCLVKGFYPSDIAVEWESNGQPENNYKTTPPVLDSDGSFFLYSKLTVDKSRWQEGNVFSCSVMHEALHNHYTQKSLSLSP", "T2 chain 2": "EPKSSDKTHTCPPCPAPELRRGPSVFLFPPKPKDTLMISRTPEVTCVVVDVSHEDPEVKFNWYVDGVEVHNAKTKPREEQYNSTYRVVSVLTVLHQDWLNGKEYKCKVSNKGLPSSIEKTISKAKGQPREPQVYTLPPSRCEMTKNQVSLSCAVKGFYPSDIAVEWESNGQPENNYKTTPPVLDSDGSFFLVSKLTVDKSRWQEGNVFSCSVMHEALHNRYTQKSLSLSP"}, "[3]": {"target": "T3, hCXCL11.0036-G1T4k.one//VHn-G1T4h.one.H435R", "T3 chain 1": "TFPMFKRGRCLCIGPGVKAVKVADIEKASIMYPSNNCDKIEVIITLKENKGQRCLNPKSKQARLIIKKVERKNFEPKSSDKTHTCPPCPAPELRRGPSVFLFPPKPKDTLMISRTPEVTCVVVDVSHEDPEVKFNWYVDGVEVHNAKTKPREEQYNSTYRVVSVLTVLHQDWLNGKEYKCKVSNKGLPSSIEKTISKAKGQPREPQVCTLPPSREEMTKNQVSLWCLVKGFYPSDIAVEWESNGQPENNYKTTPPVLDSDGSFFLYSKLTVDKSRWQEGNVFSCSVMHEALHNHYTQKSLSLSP", "T3 chain 2": "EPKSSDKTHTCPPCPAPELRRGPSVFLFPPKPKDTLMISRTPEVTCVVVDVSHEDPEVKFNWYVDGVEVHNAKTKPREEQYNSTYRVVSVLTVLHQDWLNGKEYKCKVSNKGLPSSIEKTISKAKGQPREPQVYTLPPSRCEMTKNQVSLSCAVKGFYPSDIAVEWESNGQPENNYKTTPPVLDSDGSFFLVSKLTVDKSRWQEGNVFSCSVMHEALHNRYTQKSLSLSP"}, "[4]": {"target": "T4, hITIP0035-G1T4k.one//VHn-G1T4h.one.H435R", "T4 chain 1": "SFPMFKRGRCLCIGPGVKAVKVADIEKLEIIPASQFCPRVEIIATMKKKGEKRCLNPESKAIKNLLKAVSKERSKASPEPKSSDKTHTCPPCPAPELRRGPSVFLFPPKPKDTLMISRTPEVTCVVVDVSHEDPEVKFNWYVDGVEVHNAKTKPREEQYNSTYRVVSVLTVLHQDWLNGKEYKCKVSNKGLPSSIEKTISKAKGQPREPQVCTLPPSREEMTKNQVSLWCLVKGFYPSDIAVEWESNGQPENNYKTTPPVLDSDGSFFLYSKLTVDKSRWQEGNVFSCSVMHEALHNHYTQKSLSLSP", "T4 chain 2": "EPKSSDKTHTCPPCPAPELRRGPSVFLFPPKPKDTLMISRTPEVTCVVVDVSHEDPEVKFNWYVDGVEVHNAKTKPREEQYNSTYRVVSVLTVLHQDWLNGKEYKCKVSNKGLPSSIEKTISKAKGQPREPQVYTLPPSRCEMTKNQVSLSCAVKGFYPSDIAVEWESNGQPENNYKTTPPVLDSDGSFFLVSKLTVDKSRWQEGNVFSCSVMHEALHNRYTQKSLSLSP"}, "[5]": {"target": "T5, hCXCL11.0037-G1T4k.one//VHn-G1T4h.one.H435R", "T5 chain 1": "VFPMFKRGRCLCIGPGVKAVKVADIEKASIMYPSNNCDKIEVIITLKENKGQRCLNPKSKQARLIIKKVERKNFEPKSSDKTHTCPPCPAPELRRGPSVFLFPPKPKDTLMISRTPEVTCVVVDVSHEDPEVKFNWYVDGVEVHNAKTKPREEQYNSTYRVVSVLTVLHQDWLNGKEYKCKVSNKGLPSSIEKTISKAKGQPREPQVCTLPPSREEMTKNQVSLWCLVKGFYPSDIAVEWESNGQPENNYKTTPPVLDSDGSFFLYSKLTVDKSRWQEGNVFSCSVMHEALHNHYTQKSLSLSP", "T5 chain 2": "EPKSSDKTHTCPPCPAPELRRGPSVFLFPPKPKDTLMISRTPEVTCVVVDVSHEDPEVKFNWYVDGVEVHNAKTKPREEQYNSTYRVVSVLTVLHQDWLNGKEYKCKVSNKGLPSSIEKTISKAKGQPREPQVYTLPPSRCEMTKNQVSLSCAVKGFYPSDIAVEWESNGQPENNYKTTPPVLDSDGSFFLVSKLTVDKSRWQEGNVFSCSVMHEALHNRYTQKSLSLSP"}, "[6]": {"target": "T6, hCXCL11.0031-G1T4k.one//VHn-G1T4h.one.H435R", "T6 chain 1": "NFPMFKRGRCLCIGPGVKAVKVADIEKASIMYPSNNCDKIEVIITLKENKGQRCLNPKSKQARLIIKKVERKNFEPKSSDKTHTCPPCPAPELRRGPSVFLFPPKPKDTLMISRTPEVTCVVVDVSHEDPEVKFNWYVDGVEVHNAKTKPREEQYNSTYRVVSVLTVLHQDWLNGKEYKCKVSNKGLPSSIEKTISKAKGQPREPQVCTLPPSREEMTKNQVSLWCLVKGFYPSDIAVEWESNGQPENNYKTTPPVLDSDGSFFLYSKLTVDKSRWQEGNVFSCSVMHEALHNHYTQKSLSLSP", "T6 chain 2": "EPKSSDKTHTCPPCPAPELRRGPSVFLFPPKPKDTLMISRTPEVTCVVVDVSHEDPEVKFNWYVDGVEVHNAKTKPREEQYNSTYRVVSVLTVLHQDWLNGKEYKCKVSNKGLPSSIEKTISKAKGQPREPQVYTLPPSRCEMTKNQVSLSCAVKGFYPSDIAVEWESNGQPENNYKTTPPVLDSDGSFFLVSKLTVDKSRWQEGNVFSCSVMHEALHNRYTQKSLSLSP"}, "[7]": {"target": "T7, hCXCL11.0035-G1T4k.one//VHn-G1T4h.one.H435R", "T7 chain 1": "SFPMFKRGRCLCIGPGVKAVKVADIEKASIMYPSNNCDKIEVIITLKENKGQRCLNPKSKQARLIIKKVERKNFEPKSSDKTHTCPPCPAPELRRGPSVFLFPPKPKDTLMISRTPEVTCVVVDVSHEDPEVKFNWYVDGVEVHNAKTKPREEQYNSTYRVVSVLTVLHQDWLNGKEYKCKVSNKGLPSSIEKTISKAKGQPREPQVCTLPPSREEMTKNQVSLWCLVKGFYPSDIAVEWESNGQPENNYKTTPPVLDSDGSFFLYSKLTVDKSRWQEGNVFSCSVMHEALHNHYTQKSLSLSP", "T7 chain 2": "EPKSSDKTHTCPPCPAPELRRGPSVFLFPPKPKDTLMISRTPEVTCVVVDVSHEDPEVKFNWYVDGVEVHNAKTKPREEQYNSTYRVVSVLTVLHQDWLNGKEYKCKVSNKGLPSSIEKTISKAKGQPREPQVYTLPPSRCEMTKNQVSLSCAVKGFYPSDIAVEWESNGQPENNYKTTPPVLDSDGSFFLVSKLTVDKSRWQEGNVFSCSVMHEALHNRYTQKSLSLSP"}, "[8]": {"target": "T8, hITIP0022-G1T4k.one//VHn-G1T4h.one.H435R", "T8 chain 1": "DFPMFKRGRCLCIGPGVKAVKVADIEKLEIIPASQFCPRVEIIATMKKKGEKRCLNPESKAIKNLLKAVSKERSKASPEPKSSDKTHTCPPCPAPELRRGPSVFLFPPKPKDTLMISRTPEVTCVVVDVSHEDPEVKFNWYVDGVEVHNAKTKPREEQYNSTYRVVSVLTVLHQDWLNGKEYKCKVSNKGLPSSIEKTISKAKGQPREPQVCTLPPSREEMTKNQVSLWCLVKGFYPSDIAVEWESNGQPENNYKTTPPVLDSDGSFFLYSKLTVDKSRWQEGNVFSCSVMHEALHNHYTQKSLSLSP", "T8 chain 2": "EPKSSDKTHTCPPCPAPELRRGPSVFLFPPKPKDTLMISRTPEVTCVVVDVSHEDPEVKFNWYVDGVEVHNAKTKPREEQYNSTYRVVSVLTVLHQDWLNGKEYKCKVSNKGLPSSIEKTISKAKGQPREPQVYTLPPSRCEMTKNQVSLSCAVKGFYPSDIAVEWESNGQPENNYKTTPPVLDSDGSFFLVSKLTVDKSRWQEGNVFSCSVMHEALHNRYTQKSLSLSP"}},
  "data": [
    {"protein": "human dipeptidyl peptidase IV (human DPPIV, hDPPIV) (Biolegend, 764102) (protein) NKGTDDATADSRKTYTLTDYLKNTYRLKLYSLRWISDHEYLYKQENNILVFNAEYGNSSVFLENSTFDEFGHSINDYSISPDGQFILLEYNYVKQWRHSYTASYDIYDLNKRQLITEERIPNNTQWVTWSPVGHKLAYVWNNDIYVKIEPNLPSYRITWTGKEDIIYNGITDWVYEEEVFSAYSALWWSPNGTFLAYAQFNDTEVPLIEYSFYSDESLQYPKTVRVPYPKAGAVNPTVKFFVVNTDSLSSVTNATSIQITAPASMLIGDHYLCDVTWATQERISLQWLRRIQNYSVMDICDYDESSGRWNCLVARQHIEMSTTGWVGRFRPSEPHFTLDGNSFYKIISNEEGYRHICYFQIDKKDCTFITKGTWEVIGIEALTSDYLYYISNEYKGMPGGRNLYKIQLSDYTKVTCLSCELNPERCQYYSVSFSKEAKYYQLRCSGPGLPLYTLHSSVNDKGLRVLEDNSALDKMLQNVQMPSKKLDFIILNETKFWYQMILPPHFDKSKKYPLLLDVYAGPCSQKADTVFRLNWATYLASTENIIVASFDGRGSGYQGDKIMHAINRRLGTFEVEDQIEAARQFSKMGFVDNKRIAIWGWSYGGYVTSMVLGSGSGVFKCGIAVAPVSRWEYYDSVYTERYMGLPTPEDNLDHYRNSTVMSRAENFKQVEYLLIHGTADDNVHFQQSAQISKALVDVGVDFQAMWYTDEDHGIASSTAHQHIYTHMSHFIKQCFSLP", "values": [
      {"measurement": "cleavage by hDPPIV (LC/MS mass)", "setting": "[1]", "value": "showed no mass change suggestive of peptide bond cleavage by hDPPIV treatment"},
      {"measurement": "cleavage by hDPPIV (LC/MS mass)", "setting": "[2]", "value": "showed no mass change suggestive of peptide bond cleavage by hDPPIV treatment"},
      {"measurement": "cleavage by hDPPIV (LC/MS mass)", "setting": "[3]", "value": "showed no mass change suggestive of peptide bond cleavage by hDPPIV treatment"},
      {"measurement": "cleavage by hDPPIV (LC/MS mass)", "setting": "[4]", "value": "showed no mass change suggestive of peptide bond cleavage by hDPPIV treatment"},
      {"measurement": "cleavage by hDPPIV (LC/MS mass)", "setting": "[5]", "value": "showed no mass change suggestive of peptide bond cleavage by hDPPIV treatment"},
      {"measurement": "cleavage by hDPPIV (LC/MS mass)", "setting": "[6]", "value": "showed no mass change suggestive of peptide bond cleavage by hDPPIV treatment"},
      {"measurement": "cleavage by hDPPIV (LC/MS mass)", "setting": "[7]", "value": "showed no mass change suggestive of peptide bond cleavage by hDPPIV treatment"},
      {"measurement": "cleavage by hDPPIV (LC/MS mass)", "setting": "[8]", "value": "showed no mass change suggestive of peptide bond cleavage by hDPPIV treatment"}
    ]}
  ]
}
